Where two headings read alike, the source gives them in different places.
B1: SwHaCE (H-NOX-associated cyclic-di-GMP processing enzyme from Shewanella woodyi, diguanylate cyclase/phosphodiesterase) (enzyme, UniProt B1KIH5 1-637, looked up)
chain: MSALEDREQVFLRRIDREKRARQQAEQILNEKSKELWNTNQKLQQINEQLDQMVKTRTSELEIAKTNAELESLAHKNAKERFQLAMRATSAGVWERNIDEDAWYFSDRLIALFGYSREELLFGFKNLSFIHNEDKKPLLHVLKNHFRNGKAFDFECRVLTSEGRYKWFWIVGQAVWNDKGEVVRIAGSFSDIDERVENSKLVEKMAHYDHLTMVPNRVLYNQKLDIALSLADKEQSHLAVILIDLNDFKQVNDTLGHSAGDHLLQHIANQFKLNISESDIVARLGGDEFSIVLTNIANRQAVVTKCEQVLEIISRPFYYQKNLIIPKISMGIALYPEYGMTRDELMVNADLAMYKAKGEKHMGSGFQFCEQEHINKNMERTELSSELCEAITENEFFMHFQPIIDLSNGEVTFAEALIRWKHTNKGVLLPEKFISIAEDSGLITRLGKLSIELVAKQIDRMMAAKRLQKLTINISPSHFLSQSFMEDLKEILSVYPKMSSFITIEITEVVFLLNMEVAKKTVIELHDMGITISLDDFGTGYSSFKYLQQLPIDVIKLDCSFIAELDIDPSHRNIASTIIELAHSLEIKVIAEGVETNSQLVFLQDHHCDFAQGSYFFKPLSVIDFLHMQRCISLPAK

Key:
AUC = biological target: the molecule itself; test: AUC
[1] = biological target: B1; test: other fluorescence titration
[2] = biological target: B1; test: AUC
[3] = biological target: B1; test: AUC; remark: listed apart in the source

Row | Binder | stoichiometry N (AUC) | Kd [1] [µM] | stoichiometry N [2] | stoichiometry N [3]
1 | B1 | 2 | – | – | –
2 | SwH-NOX (heme-nitric oxide/oxygen binding protein from Shewanella woodyi), wild type (natural protein, UniProt B1KIH6 1-182, looked up) MMGMVFTGLMELIEDEFGYETLDTLLESCELQSEGIYTSVGSYDHQELLQLVVKLSEVSSVPVTELVRLFGKKLFVELIEGHPEIANEMKDSFDLLSKIDSFIHVEVYKLYPQAELPKFTCDRLGDNDIRLHYQSKRPFASFAEGLLDGCAEYFKEDFTISRTPETQDSETDVIFNITRAPR | – | 2.5 to 3 | 1 H-NOX per HaCE (2+2) | 1 H-NOX per HaCE (2+2)

Source: article PMC3985513 (Biochemistry, 2014)
